B1: NHase Seq ID No. 6 and 8: nitrile hydratase of Raoultella terrigena strain 37.1, α-subunit SEQ ID NO 6, β-subunit SEQ ID NO 8 (protein)
alpha: MSHKHDHDHTEPPIDIELRVRALESLLQEKGLIDPAALDELIDTYEHKVGPRNGAQVVARAWSDPEYKRRLMENATAAISELGFSGIQGEDMLVVENTPDVHNVTVCTLCSCYPWPVLGLPPVWYKSAPYRSRIVIDPRGVLAEFGLHIPESKEIRVWDSSAELRYLVLPERPAGTDGWSEAQLSELISRDSMIGTGVVTAP
beta: MNGIHDLGGMHGFGPIPTEENEPYFHHEWERRVFPMFASLFVGGHFNVDEFRHSIECMPPADYLQSSYYEHWLHAFETLLLAKGVITVDELWGGAKPTLCKPGTPVLTQDMVSMVVSTGGSARVSHDVAPRFRVGDRVRTKNFNPTTHTRLPRYARDKVGRIEIAHGVFITPDTAAHGLGEHPQHVYSVSFTAQELWGEPRPDNVFIDLWDDYLEEA
modifications: Raoultella terrigena, strain 37.1
B2: NHase Seq ID No. 10 and 12: nitrile hydratase of Pantoea sp. strain 17.3.1, α-subunit SEQ ID NO 10, β-subunit SEQ ID NO 12 (protein)
alpha: MSNHDVLPSESALKVRAIQSLLTEKGLLDPQTSDAIVDYFENKIGPRNGASVVARAWLDAEFKKKLLEDGTTAISEMGFSGAEGAVIHVLENTDAVHNIVVCTLCSCYPWPVLGLPPIWFKSAQYRSRVVIDPRGVLKEFGTELPPEKEIRVWDSNAEIRYFVLPQRPAGTENLSEEQLAARVTRDSMIGTGIL
beta: MNGIHDCGGMQNLGAIPLEENEPVFHAEWEKAILVMTINGFLSGSILVDNFRHQIEKMPASEYLLTSYYEHWVFAMEHLLINNNTITREALESRMAELAERVEMSAIAKETFLELIKTTPNYHRESDAIARFAPGDTIRTCELNTPGHTRLPRYARDKTGVIIAMYGVCVFPDSLTRDGSEDPQHVYLVQFSSADLWGAGSEPFTVSLSLFESYIAEKVE
modifications: Pantoea sp., strain 17.3.1
B3: NHase Seq ID No. 14 and 16: nitrile hydratase of Brevibacterium linens strain 32B.1, α-subunit SEQ ID NO 14, β-subunit SEQ ID NO 16 (protein)
alpha: MSDKIRSQEEIAARVKALESMLIEKGIMTTQAIDRLVEIYENEVGPQLGAKVVAKAWSDPGFKSRLLTDATGACGELGIGGLQGEDMVVVEDTDTVHNVIVCTLCSCYPWPVLGLPPNWYKDPQYRAAICREPRKVLSESFGYTVSNDVEIRVWDSSSEMRYWVLPRRPDGTDGWTEDQLADLVSRDSMIGVGPTAKAQS
beta: MNGVFDLAGTDGLGPVVVPDDEPIFRAEWEKAAFGMFSMCFRGGFFGVDQFRYGMEQIDPAVYLKSPYYEHWIHTVEYHGERTGQLDLDELDRRTEYYLANPDAPMPEHADDPELLAFINAVVPAGAPAKRESDKIARFQVGDTVKVLRDSPRGHTRRARYIRGATGEIVLAHGTFIYPDTAGNNLGECPEHVYTVRFTAEELWGAETAEPNQSVYFDVWDPYIELVTPRGAQSA
modifications: Brevibacterium linens, strain 32B.1

Legend:
Type in all cases: biochemical
[1] = system: NHase from Raoultella terrigena, 77.1; assay: Substrate spectrum, relative activity of the NHase from strain 77.1; conditions: cell free crude cell extracts; 2-phenylpropionitrile set to 100%
Description: (§1) If not otherwise indicated enzyme samples were prepared as follows: the cells from 1 ml of the culture were washed with 50 mM Tris/HCl pH 7.5 and resuspended in 750 μl of the same buffer. This suspension was incubated at 30° C. in a thermomixer at 1000 rpm. The biotransformation was started by addition of the substrate 2-phenylpropionitrile (PPN) in 50 mM Tris/HCl pH 7.5. The concentration of the substrate was 1 mM, if not otherwise stated. The reaction was stopped after 1 min, 5 min or 10 min as indicated by addition of 1 M HCl. Cells were removed by centrifugation and the supernatant analysed by HPLC for the presence of the corresponding amide. The HPLC analysis was carried out on a system comprising a Surveyor 4 channel Pump, AutoSampler and UVNIS detector at 210 nm from Thermo Finnigan on a Grom-Sil 1200DS-3 cp 3 μm (125×4.6 mm) reverse phase column. As mobile phase, acetonitrile and 0.3% H3PO4 were used in a ratio of 50:50 at a flow of 0.7 ml/min, respectively.
(§2) For the enzyme according Seq ID No. 2 and 4 (Raoultella terrigena, 77.1) and Seq ID. No. 18 and 20 (Klebsiella oxytoca, 38.1.2) the substrate spectrum was determined. The activities were compared to the activity towards 2-phenylpropionitrile which was set to 100%. Both enzymes are capable of the conversion of aliphatic as well as aromatic substrates.

[2] = system: NHase from Klebsiella oxytoca, 38.1.2; assay: Substrate spectrum, relative activity of the NHase from strain 38.1.2; conditions: lyophilized cells; 2-phenylpropionitrile set to 100%
Description: as §1, §2

[3] = Activity of enzyme samples after heterologous expression of NHases in E. coli towards PPN; conditions: 1 mM PPN; stopped after 1 min; host E. coli BL21 (DE3) (a) or E. coli Rosetta (DE3) (b)
Description: The amplified α-subunits were ligated to pET22b whereas the β-subunits were ligated to pET26b by use of the unique NdeI and XhoI restriction enzyme recognition sites. E. coli BL21 (DE3) or E. coli Rosetta (DE3) was cotransformed with the vectors carrying the genes for the corresponding α- and β-subunits of the NHases. Freshly transformed cells were grown over night at 37° C. in 5 ml LB-medium containing 100 μg/ml ampicillin, 25 μg/ml kanamycin and 2% (w/v) glucose. In case of E. coli Rosetta (DE3) 12.5 μg/ml chloramphenicol was additionally used. 1 ml of this culture was used to inoculate 100 ml of LB-medium containing 100 μg/ml ampicillin, 25 μg/ml kanamycin and 1% (w/v) glucose. Cells were incubated at 20° C. or 30° C. on a gyratory shaker at 100 rpm. At an optical density O.D.595=1 cells were induced by addition of 100 μg/ml IPTG. Simultaneously, CoCl2*6H2O was added in a concentration of 250 μM. When the P16K activator protein from the strain Brevibacterium linens was coexpressed with the corresponding NHase E. coli Rosetta (DE3) pET22—32B1α pET26—32B.1β pBBR5—32B_P16K was grown in LB-medium containing 100 μg/ml ampicillin, 25 μg/ml kanamycin, 12.5 μg/ml chloramphenicol and 10 μg/ml gentamycin and 1% (w/v) glucose. Samples were taken 24 h after induction.
as §1

[4] = Enantioselectivity of NHases towards rac-mandelonitrile (washed cells, chiral HPLC); conditions: for enantiopreference: (R/S)-mandelonitrile; for Eapp-value: kinetic resolution of (R/S)-mandelonitrile; for Eapp-value heterologously expressed / Eapp-value homologously expressed: rac-mandelonitrile; for Eapp-value heterologously expressed: heterologously expressed NHase; for Eapp-value homologously expressed: homologously expressed NHase
Description: For the determination of enantioselectivity towards rac-mandelonitrile and 2-phenylpropionitrile 40-50 mg of washed cells were resuspended in 1 ml of 50 mM Tris/HCl pH 7.5. 100 μl of cell suspension were mixed with 800 μl 50 mM Tris/HCl pH 7.5 and incubated at 30° C. in a thermomixer at 1000 rpm. The biotransformation was started by addition of 100 μl of 10 mM rac-mandelonitrile or rac-2-phenylpropionitrile in 50 mM Tris/HCl pH 7.5. The reaction was stopped by addition of 100 μl 1M HCl after 1, 5 or 10 min. Cells were removed by centrifugation and the supernatant analysed by chiral HPLC for the presence of mandeloamide and phenylpropionamide, respectively. rac-Mandeloamide was analysed on a HPLC comprising a Surveyor 4 channel Pump, AutoSampler and UVNIS detector at 210 nm from Thermo Finnigan on a Nucleodex β-OH column (Macherey & Nagel) using 50% methanol/water:water (40:60) as mobile phase at a flow rate of 0.7 ml/min. The apparent enantiomeric ratio (Eapp) of the conversion of mandelonitrile was calculated according to Straathof and Jongejan for […] (see example 9). In case of 2-phenylpropionamide, the samples were lyophilized and resuspended in n-hexane: 2-propanol (80:20). Prior to injection, the samples were additionally dried with sodium sulfate and were centrifugated at 16,000 g for 5 min. The supernatants were analyzed using a Chiracel OD column (Daicel) on a Spectra System (AS3000, P2000, UV2000 at 210 nm) from Thermo Separation Products with n-hexane: 2-propanol (80:20) as mobile phase at a flow rate of 0.5 ml/min. The enantiomeric ratio (E) of the conversion of PPN was calculated according to Chen et al. […]

[5] = Enantioselectivity of NHases towards rac-2-phenylpropionitrile (washed cells, chiral HPLC); conditions: for E-value: kinetic resolution of rac-2-phenylpropionitrile; for enantiopreference: rac-2-phenylpropionitrile
Description: For the determination of enantioselectivity towards rac-mandelonitrile and 2-phenylpropionitrile 40-50 mg of washed cells were resuspended in 1 ml of 50 mM Tris/HCl pH 7.5. 100 μl of cell suspension were mixed with 800 μl 50 mM Tris/HCl pH 7.5 and incubated at 30° C. in a thermomixer at 1000 rpm. The biotransformation was started by addition of 100 μl of 10 mM rac-mandelonitrile or rac-2-phenylpropionitrile in 50 mM Tris/HCl pH 7.5. The reaction was stopped by addition of 100 μl 1M HCl after 1, 5 or 10 min. Cells were removed by centrifugation and the supernatant analysed by chiral HPLC for the presence of mandeloamide and phenylpropionamide, respectively. rac-Mandeloamide was analysed on a HPLC comprising a Surveyor 4 channel Pump, AutoSampler and UVNIS detector at 210 nm from Thermo Finnigan on a Nucleodex β-OH column (Macherey & Nagel) using 50% methanol/water:water (40:60) as mobile phase at a flow rate of 0.7 ml/min. The apparent enantiomeric ratio (Eapp) of the conversion of mandelonitrile was calculated according to Straathof and Jongejan for asymmetric catalysis (see example 9). In case of 2-phenylpropionamide, the samples were lyophilized and resuspended in n-hexane: 2-propanol (80:20). Prior to injection, the samples were additionally dried with sodium sulfate and were centrifugated at 16,000 g for 5 min. The supernatants were analyzed using a Chiracel OD column (Daicel) on a Spectra System (AS3000, P2000, UV2000 at 210 nm) from Thermo Separation Products with n-hexane: 2-propanol (80:20) as mobile phase at a flow rate of 0.5 ml/min. The enantiomeric ratio (E) of the conversion of PPN was calculated according to Chen et al.

Molecule	rel. activity 77.1 [1] [%]	rel. activity 38.1.2 [2] [%]	spec. activity [3] [μkat/g cdw]	vol. activity [3] [μkat/L cultur]	enantiopreference [4]	Eapp-value [4]	Eapp-value heterologously expressed [4]	Eapp-value homologously expressed [4]	E-value [5]	enantiopreference [5]
N#Cc1cccnc1 [3-cyanopyridine]	21	–	–	–	–	–	–	–	–	–
CCC(C#N)c1ccccc1 (stereo not drawn) [2-phenyl-butyronitrile]	1	18	–	–	–	–	–	–	–	–
CC(C#N)c1ccccc1 (stereo not drawn) [2-phenyl-propionitrile]	100	100	–	–	–	–	–	–	–	–
N#CCc1ccccc1 [phenyl-acetonitrile]	1	1	–	–	–	–	–	–	–	–
butyronitrile	242	281	–	–	–	–	–	–	–	–
N#Cc1ccccc1 [benzonitrile]	18	25	–	–	–	–	–	–	–	–
N#CC(O)c1ccccc1 (stereo not drawn) [mandelonitrile]	5	9	–	–	–	–	–	–	–	–
methacrylonitrile	109	138	–	–	–	–	–	–	–	–
B1	–	–	2.8	5.5	(S)	18	18	17	47	(S)
B2	–	–	0.4	0.6	(S)	4	4	5	2	(S)
B3	–	–	16.9	25.3	(S)	4	4	4	8	(S)
